In patent publication US20250011447A1 (EXCYTE BIOPHARMA, published 2025):
Positions count from the first letter of the chain named. Values belong to the binder of their own block, whether it stands above or below them.

Tests used:
[1] = biological target: T1, BCMA-Fc fusion protein (Acrobiosystems, catalog number BC7-H5254) (human, UniProt Q02223 1-54, biotin cross-linked, 3 to 5 biotin molecules per molecule, where the biotinylated antigen is used (ELISA of Table 3); sites not stated); test: ELISA, BCMA-Fc coated at 0.25 µg/ml, Fab from E. coli, HRP anti-human Fab
T1 construct: Bought protein; also called BCMA antigen; BCMA-Fc antigen; not shown: human Fc of the bought fusion protein
T1 sequence (looked up): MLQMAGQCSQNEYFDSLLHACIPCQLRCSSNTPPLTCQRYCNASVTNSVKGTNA
Experimental: The conditions of the enzyme-linked reaction were optimized through preliminary experiments, to allow the A450 absorption value of the binding of B10 parental antibody Fab to the antigen BCMA-Fc 3 times higher than the background signal. The BCMA-Fc antigen was coated at 0.25 μg/ml on the enzyme-linked plate one day in advance, and the secreted and expressed mutant Fab was added to the wells on the following day, with HRP-conjugated anti-human Fab as the second antibody, the substrate was colored, and A450 was read, to obtain clones corresponding to the wells with signals 1.5 times higher than the maximum value of the parental wells, and these clones were called hits. All hits of the light and heavy chain variable regions were collected, inducted to express and tested by ELISA to verify their affinity higher than the parental antibody. Sequence analysis of mutant regions of the plasmid of the re-positive clone was performed, to obtain the mutation information of CDR amino acids. The process was called primary screening. All mutation information in the CDR region that was beneficial to the improvement of affinity was obtained: mutation sites that improved affinity in the heavy chain variable region CDR are shown in Table 1, and those in the light chain variable region CDR are shown in Table 2.

[2] = biological target: T2, human BCMA on the cell membrane surface (H929 and RPMI8226 cells) (human, UniProt Q02223 1-184); test: flow cytometry on H929 cells, scFv-Fc
T2 construct: whole, on cells; also called BCMA antigen on the cell membrane surface; BCMA-expressing cell line H929
T2 sequence (looked up): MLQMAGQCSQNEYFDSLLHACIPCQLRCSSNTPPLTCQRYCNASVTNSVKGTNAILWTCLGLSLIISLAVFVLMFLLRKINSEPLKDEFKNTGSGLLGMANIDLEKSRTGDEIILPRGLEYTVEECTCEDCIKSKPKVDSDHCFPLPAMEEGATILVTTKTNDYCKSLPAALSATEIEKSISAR

[3] = biological target: T2, human BCMA on the cell membrane surface …; test: flow cytometry on RPMI8226 cells, scFv-Fc
[4] = biological target: T2, human BCMA on the cell membrane surface …; test: flow cytometry on RPMI8226 cells (as the text tells it; the table gives this value to J6); flow cytometry on RPMI8226 cells; value as the text of paragraph 107 assigns it
[5] = biological target: T2, human BCMA on the cell membrane surface …; test: flow cytometry on RPMI8226 cells, EC50 ratio (as the table labels it)
[6] = biological target: T2, human BCMA on the cell membrane surface …; test: flow cytometry on RPMI8226 cells (as the table labels it; the text gives this value to J6)
[7] = biological target: T2, human BCMA on the cell membrane surface …; test: flow cytometry on RPMI8226 cells, EC50 ratio
From the text: (§1) In order to understand the apparent affinity of these antibodies to BCMA on the cell surface, the binding of B10 parental antibody and the finally obtained 4 mutants to BCMA-expressing cell line RPMI8226 were compared with J6 by flow cytometry (see Graph B of FIG. 4, Table 4).

[8] = biological target: T1, BCMA-Fc fusion protein (Acrobiosystems, …); test: ELISA EC50 relative to J6
Experimental: (§2) After antibodies with different concentrations were coated on enzyme-linked plates, the biotinylated BCMA antigen, streptavidin-conjugated horseradish peroxidase (HRP) and chromogenic substrate were added step by step. The obtained signal-antibody gradient curve is shown in Graph A of FIG. 4, and the relative affinity change fold is shown in Table 3.

[9] = biological target: T1, BCMA-Fc fusion protein (Acrobiosystems, …); test: affinity worked out from the ELISA EC50 fold against J6 (taken as about 0.2 nM)
Experimental: as §2

[10] = biological target: T2, human BCMA on the cell membrane surface …; test: flow cytometry on RPMI8226 cells
From the text: as §1

binding result [1]: binds
B1: B10 parental antibody Fab (Fab, V domains shown)
VH: QVQLQQSGAEVKKPGSSVKVSCKASGGTFSSYAISWVRQAPGQGLEWMGGIIPIFGTANYAQKFQGRVTITADESTSTAYMELSSLRSEDTAVYYCARGWYFDLWGRGTLVTVSS
VL: LPVLTQPPSASGTPGQRVTISCSGSSSNIGGYSVNWYQQFPGTAPKLLIYRNNQRPSGVPDRFSGSKSGASASLAISGLQSEDEADYYCAAWDDSLIGYVFGTGTQLTVL
notes: Variable regions cloned into vector pUFL and secreted as Fab by E. coli BL21(DE3); also called Fab form of B10

percentage of binding [2]: 75.3%
percentage of binding [3]: 5.54%
EC50 [4]: 2.74 µg/mL
Fold increase relative to J6 [5]: 0.57 fold
EC50 [6]: 1.57 µg/mL
B2: B10 scFv-Fc protein (B10 parental antibody) (Fc fusion)
scFv: QVQLQQSGAEVKKPGSSVKVSCKASGGTFSSYAISWVRQAPGQGLEWMGGIIPIFGTANYAQKFQGRVTITADESTSTAYMELSSLRSEDTAVYYCARGWYFDLWGRGTLVTVSSASTGGSSRSSSSGGGGSGGGGLPVLTQPPSASGTPGQRVTISCSGSSSNIGGYSVNWYQQFPGTAPKLLIYRNNQRPSGVPDRFSGSKSGASASLAISGLQSEDEADYYCAAWDDSLIGYVFGTGTQLTVL
notes: scFv gene fused with the Fc gene of human IgG4 (plasmid pFH-B10); also called clone B10; scFv-Fc protein of B10; not shown: Fc of human IgG4 from vector pFH

Fold increase relative to J6 [7]: 79.9 fold
percentage of binding [2]: 97.9%
Fold of J6 [8]: 1.55 fold
percentage of binding [3]: 57.5%
Kd [9]: 0.31 nM
EC50 [10]: 0.0343 µg/mL
B3: B10.4 scFv-Fc (Fc fusion)
scFv: QVQLQQSGAEVKKPGSSVKVSCKASGGTFSKSAIMWVRQAPGQGLEWMGGVIPIFGTANYAQKFQGRVTITADESTSTAYMELSSLRSEDTAVYYCARGWYLDLWGRGTLVTVSSASTGGSSRSSSSGGGGSGGGGLPVLTQPPSASGTPGQRVTISCSGSSNNIGGYSVNWYQQFPGTAPKLLIYRNNQRPSGVPDRFSGSKSGASFSLAISGLQFEDEADYYCARWDDSVIGWVLGTGTQLTVL
notes: also called mutant B10.4; not shown: Fc (scFv-Fc)

Fold increase relative to J6 [7]: 97.1 fold
percentage of binding [2]: 98%
Fold of J6 [8]: 1.29 fold
percentage of binding [3]: 54.9%
Kd [9]: 0.26 nM
EC50 [10]: 0.0282 µg/mL
B4: B10.3 scFv-Fc (Fc fusion)
scFv: B3 scFv with M35Q, F208A, F217S, R227A, V236L, L237F
notes: also called mutant B10.3; not shown: Fc (scFv-Fc)

Fold increase relative to J6 [7]: 67.5 fold
percentage of binding [2]: 97.2%
Fold of J6 [8]: 1.35 fold
percentage of binding [3]: 58.2%
Kd [9]: 0.27 nM
EC50 [10]: 0.0406 µg/mL
B5: B10.5 scFv-Fc (Fc fusion)
scFv: B2 scFv with S31K, Y32S, S35H, I51V, F102L, E220V
notes: also called mutant B10.5; not shown: Fc (scFv-Fc)

Fold increase relative to J6 [7]: 60.7 fold
percentage of binding [2]: 91.6%
Fold of J6 [8]: 1.43 fold
percentage of binding [3]: 42.9%
Kd [9]: 0.29 nM
EC50 [10]: 0.0451 µg/mL
B6: B10.9 scFv-Fc (Fc fusion)
scFv: B3 scFv with M35Q, F208A, F217S, R227A, V232E, V236L, L237F
notes: also called mutant B10.9; not shown: Fc (scFv-Fc)
